T1: human prominin-1 (Homo sapiens, UniProt O43490, DEL381-611)
T1 construct: His-tag (6xHis) (N); made in house
T1 sequence (O43490 with tags, fused parts or gaps DEL381-611): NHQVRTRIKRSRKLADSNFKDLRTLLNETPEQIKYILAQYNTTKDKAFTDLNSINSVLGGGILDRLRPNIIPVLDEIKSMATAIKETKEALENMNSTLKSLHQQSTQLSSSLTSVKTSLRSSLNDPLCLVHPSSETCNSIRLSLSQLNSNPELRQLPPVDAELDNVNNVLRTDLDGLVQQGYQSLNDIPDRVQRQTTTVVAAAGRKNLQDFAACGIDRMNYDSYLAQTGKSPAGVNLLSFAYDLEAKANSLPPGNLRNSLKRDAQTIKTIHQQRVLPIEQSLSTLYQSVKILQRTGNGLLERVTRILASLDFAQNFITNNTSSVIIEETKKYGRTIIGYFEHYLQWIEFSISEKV

T2: CD133 (Homo sapiens, UniProt O43490)
T2 construct: endogenous in cells
T2 sequence (O43490 20-865): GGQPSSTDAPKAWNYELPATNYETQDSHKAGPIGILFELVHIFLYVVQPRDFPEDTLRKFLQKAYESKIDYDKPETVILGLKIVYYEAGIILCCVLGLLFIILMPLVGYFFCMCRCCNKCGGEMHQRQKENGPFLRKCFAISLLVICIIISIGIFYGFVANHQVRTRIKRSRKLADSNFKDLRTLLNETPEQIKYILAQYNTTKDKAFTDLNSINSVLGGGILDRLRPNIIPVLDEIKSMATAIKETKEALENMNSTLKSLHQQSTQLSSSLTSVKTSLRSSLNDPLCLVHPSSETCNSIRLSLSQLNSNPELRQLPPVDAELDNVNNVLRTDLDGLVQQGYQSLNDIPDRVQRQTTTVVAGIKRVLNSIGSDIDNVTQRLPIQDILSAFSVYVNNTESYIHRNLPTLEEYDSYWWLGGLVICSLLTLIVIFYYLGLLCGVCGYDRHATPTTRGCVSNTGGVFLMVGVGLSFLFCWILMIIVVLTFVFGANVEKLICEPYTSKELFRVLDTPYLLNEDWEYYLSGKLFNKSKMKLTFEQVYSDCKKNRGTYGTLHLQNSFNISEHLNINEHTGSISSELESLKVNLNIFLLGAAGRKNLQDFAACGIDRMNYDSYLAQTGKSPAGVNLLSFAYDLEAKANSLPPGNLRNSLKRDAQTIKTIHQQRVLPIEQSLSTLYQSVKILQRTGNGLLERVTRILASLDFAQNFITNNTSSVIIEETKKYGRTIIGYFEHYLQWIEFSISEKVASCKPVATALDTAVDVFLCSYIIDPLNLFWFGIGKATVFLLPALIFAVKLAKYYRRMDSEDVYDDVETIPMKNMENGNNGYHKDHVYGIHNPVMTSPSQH

B1: Hybridoma Clone 7: monoclonal antibody produced by Hybridoma Clone 7 that specifically binds to human CD133 (antibody, V domains shown)
VL: DIVLSQSPAIMSASPGEKVTISCSASSSVSYMYWYQQKPGSSPKPWIYRTSNLASGVPARFSGSGSGTSYSLTISSMEAEDAATYYCQQYHSYPPTFGAGTKLELK
VH: LEVKLVESGPELKKPGETVKISCKASGYTFTDYSMHWVNQAPGKGLKWMGWINTETGEPSYADDFKGRFAFSLETSASTAYLQINNLKNEDTATYFCATDYGDYFDYWGQGTTLTVSS
B2: No. 11 scFv: soluble scFv of the Hybridoma Clone 7 antibody expressed in E. coli Top10F', SEQ ID NO:58; also used FITC-labeled (protein)
scFv: MDIVLSQSPAIMSASPGEKVTISCSASSSVSYMYWYQQKPGSSPKPWIYRTSNLASGVPARFSGSGSGTSYSLTISSMEAEDAATYYCQQYHSYPPTFGAGTKLELKSSGGGGSGGGGGGSSRSSLEVKLVESGPELKKPGETVKISCKASGYTFTDYSMHWVNQAPGKGLKWMGWINTETGEPSYADDFKGRFAFSLETSASTAYLQINNLKNEDTATYFCATDYGDYFDYWGQGTTLTVSS
modifications: optionally FITC-labeled; scFv polypeptide

How the values were obtained:
human prominin-1 = target: T1, human prominin-1; experiment: Soluble scFv ELISA; format: binding; settings: for binding specificity in soluble scFv ELISA: scFv from culture medium and periplasmic space
Procedure: A single colony was picked from No. 11 DNA transformed Top10F′ E. coli LB-Amp plate in and used to inoculate 25 mL LB medium with 100 μg/mL Amp. The culture was shaken at 37° C. at 250 rpm overnight.
The 25 mL overnight culture was diluted to 500 mL LB containing Amp and was shaken at 37° C. at 250 rpm for about two hours until the OD600 reached 0.5 to 0.7. IPTG was added to a final concentration of 1 mM. The culture was shaken at 30° C. overnight.
The culture was centrifuged at 5.000 g for 20 minutes at 4° C. The supernatant was kept for ELISA.
The cell pellet was completely suspended with 50 mL ice-cold PBS containing protease inhibitors (1 mM PMSF), and was sonicated on ice in short bursts. The power setting was 7 min, 40% power cycle 5 (HD2200 W/MS 73). Triton X-100 was added to the cell lysate to a final concentration of 1% and was mixed gently for 30 minutes at room temperature to aid in solubilization of the fusion protein.
The mixture was centrifuged at 15,000 rpm (Heraeus #3334 rotor) for 30 minutes at 4° C., and the supernatant was taken for ELISA.
The 2 supernatants were diluted (one is from overnight culture supernatant, and the other is from overnight culture pellet) containing soluble mouse scFv with equal volume of 5% milk and were incubated for 10 minutes at room temperature.
100 μL of the diluted scFv was added to each well (coated with human prominin-1), and incubated for one hour at 37° C.
The plate was washed five times.
50 μL per well of diluted secondary antibody conjugate at 1:2.000 (HOURP-conjugated anti-HA, diluted in 5% milk) was added, and incubated for one hour at 37° C.
50 μL/well TMB substrate was added for detection, and incubated for 30 minutes at room temperature.
Soluble scFv ELISA was performed to confirm the binding specificity to the target protein. Here, the expressed scFv was captured by human prominin-1 pre-coated plate, and the binding of the soluble scFv fused with HA tag was detected with anti-HA Ab-HOURP conjugate. […] Supernatant and pellet are test samples. PC means positive control, hybridoma secreted antibody (diluted at 1:2000) was used. BLK means blank.

CD133 = target: T2, CD133; experiment: Tunicamycin glycosylation inhibition, Western blot of Caco-2 lysates; format: binding; settings: Caco-2 cells treated with tunicamycin
Procedure: FIG. 3: Specificity of antibody produced by Hybridoma Clone 7. (A) Flow cytometry. Cells were incubated with primary antibody from either Hybridoma Clone 7 or 293C3 (Militenyi), followed by incubation with a labeled secondary antibody, and then analyzed by flow cytometry. Antibody from the newly developed anti-CD133 Hybridoma Clone 7 (open black histogram) stains very specifically the CD133-overexpressing cells, Caco-2 (iii), GBM6 (iv) and U87 cells transfected with CD133 (ii) but not CD133 negative U87 cells (i). Immunostaining using the monoclonal antibody produced by Hybridoma Clone 7 is compared to clone 293C3 (open grey histogram). Isotype control is represented by solid grey histogram. (B) Tunicamycin mediated glycosylation inhibition. Caco-2 cells were treated with increasing doses of tunicamycin (2.5, 5, 10, 20 μg/ml) for 3 days. DMSO treated cells or untreated cells served as controls. Cells were lysed and then analyzed by Western blotting using the monoclonal antibody produced by Hybridoma Clone 7 or GAPDH antibodies.
Caco-2 cells were seeded in 6-well plates and treated with 2.5 μg/ml-20 μg/ml tunicarmycin or vehicle (medium containing 0.1% DMSO) for three days. […] The lysates were centrifuged to remove cell debris and then analyzed by western blotting using either Hybridoma Clone 7 or anti-GAPDH (Sigma-Aldrich Corp., St. Louis, Mo.) as primary antibodies.

| Molecule | A450, Positive Control (human prominin-1; hybridoma secreted antibody diluted at 1:2000) | epitope recognized (glycosylated or not) (CD133) | A450, Supernatant (human prominin-1; culture supernatant of Top10F' E. coli) | A450, Pellet (human prominin-1; lysate of culture pellet (periplasmic space)) | binding specificity in soluble scFv ELISA (human prominin-1) | binding specificity in soluble scFv ELISA (human prominin-1; listed as Recombinant Clone 11 scFv) |
| --- | --- | --- | --- | --- | --- | --- |
| B1 | 1.9 | specifically binds to an non-glycosylated epitope | – | – | – | – |
| B2 | – | – | 0.9 | 1.4 | confirmed specific for human prominin-1 protein | specific for human CD133 |

Source: patent publication US11098109B2, “Single-chain variable fragment anti-CD133 antibodies and uses thereof” (REGENTS OF THE UNIVERSITY OF MINNESOTA, priority 2010, dated 2021)
